What was measured:
Experiment in all cases: cryo-EM structure
[1] = molecular target: Bufavirus 1 (BuV1) VP2, assembled as virus-like particles (Bufavirus 1 (BuV1))
[2] = molecular target: Bufavirus 2 (BuV2) VP2, assembled as virus-like particles (Bufavirus 2 (BuV2))
[3] = molecular target: Bufavirus 3 (BuV3) VP2, assembled as virus-like particles (Bufavirus 3 (BuV3))

Bufavirus 1 (BuV1) VP2, assembled as virus-like particles (natural protein)
stoichiometry N [1]: 60

Bufavirus 2 (BuV2) VP2, assembled as virus-like particles (natural protein)
stoichiometry N [2]: 60

Bufavirus 3 (BuV3) VP2, assembled as virus-like particles (natural protein)
stoichiometry N [3]: 60
